Our source for the koff, lifetime of the dimer and stoichiometry N values is article PMC5564421.

Like-named read-outs stand apart in the source and are kept apart here.

Experiment [1] addresses Cytc from equine heart (equine) (UniProt P00004). Nature of the experiment: SEC. Background: In gel filtration, larger molecules generally elute earlier.
Experiment [2] shares this target. Nature of the experiment: SEC. The source holds these as a separate data set.
Experiment [3] deals with WT* iso-1-Cytc (K72A variant of yeast iso-1-cytochrome c, with C102S) (yeast). Nature of the experiment: SEC.
Experiment [4] has the same target. Nature of the experiment: crystal structure.
The target is the same in experiment [5]. Briefly: SEC. The source holds these as a separate data set.
The target is the same in experiment [6]. Nature of the experiment: SEC. This is another data set of the same source.
For experiment [7] the target is unchanged. Briefly: SEC. This is another data set of the same source.
Experiment [8] shares this target. Nature of the experiment: SEC. The source holds these as a separate data set.

Sequence of Cytc from equine heart, P00004 1-105 (natural protein; other documents disagree on this pair) (P00004 whole entry): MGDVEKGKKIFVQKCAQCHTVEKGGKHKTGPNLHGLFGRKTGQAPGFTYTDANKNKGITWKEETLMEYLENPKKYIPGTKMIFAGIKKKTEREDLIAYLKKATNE

As for “Cytc from equine heart, P00004 1-105 (natural protein; other documents disagree on this pair)”, the koff in experiment [1] was 1.6e-06 s⁻¹. Further, in experiment [2], the koff stood at 1.5e-05 s⁻¹ and the lifetime of the dimer is 7.4 days.

With “WT* iso-1-Cytc (K72A variant of yeast iso-1-cytochrome c, with C102S) (natural protein)”, the koff in experiment [3] came out at 6.1e-05 s⁻¹; in experiment [5], 1.6e-05 s⁻¹; in experiment [6], 6.5e-06 s⁻¹; in experiment [7] it was 0.0034 s⁻¹; in experiment [8], 0.00055 s⁻¹. This substance registered a stoichiometry N in experiment [4] of 2.

As usually defined, the koff is the rate constant with which the complex falls apart. Broadly, the stoichiometry N is the number of molecules, sites or subunits per partner or assembly.
